Assay results taken from patent US20200339648A1 (University of Washington, published 2020).

Columns and labels:
[1] = target: T1, human IL-2 receptor βγc heterodimer (hIL-2Rβγc), soluble (human, UniProt P14784 27-240; P31785 23-254, biotin on the C-terminal biotin acceptor peptide); assay: SPR, equilibrium titration; IL-2Rγ on streptavidin chip, saturating IL-2Rβ in solution
T1 construct: also called HsIL-2Rβγc; hIL-2Rβνc
T1 sequence 1: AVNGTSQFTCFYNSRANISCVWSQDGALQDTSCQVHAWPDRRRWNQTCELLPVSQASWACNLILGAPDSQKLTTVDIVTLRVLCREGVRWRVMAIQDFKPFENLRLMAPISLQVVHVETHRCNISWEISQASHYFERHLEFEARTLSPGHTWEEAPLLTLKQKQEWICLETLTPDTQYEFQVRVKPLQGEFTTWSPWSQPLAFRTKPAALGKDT
T1 sequence 2: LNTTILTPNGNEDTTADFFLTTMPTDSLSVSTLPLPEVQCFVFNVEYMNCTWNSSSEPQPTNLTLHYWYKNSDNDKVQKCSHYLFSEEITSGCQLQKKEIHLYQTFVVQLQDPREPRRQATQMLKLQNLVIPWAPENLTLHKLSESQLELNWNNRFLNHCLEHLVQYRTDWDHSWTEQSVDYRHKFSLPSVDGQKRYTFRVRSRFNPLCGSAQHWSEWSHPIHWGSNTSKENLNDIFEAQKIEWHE

[2] = target: T2, mouse IL-2 receptor βγc heterodimer (mIL-2Rβγc), soluble (mouse, UniProt P16297 27-240; P34902 23-263, biotin on the C-terminal biotin acceptor peptide); assay: as above
T2 construct: extracellular domain; also called MmIL-2Rβγc; mIL-2Rβνc
T2 sequence 1: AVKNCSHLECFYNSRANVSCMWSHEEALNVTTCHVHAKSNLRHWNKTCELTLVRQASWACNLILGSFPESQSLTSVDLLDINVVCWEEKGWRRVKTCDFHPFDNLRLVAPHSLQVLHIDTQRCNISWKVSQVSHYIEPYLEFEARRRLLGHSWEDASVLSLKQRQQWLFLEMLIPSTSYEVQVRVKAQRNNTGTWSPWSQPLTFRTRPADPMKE
T2 sequence 2: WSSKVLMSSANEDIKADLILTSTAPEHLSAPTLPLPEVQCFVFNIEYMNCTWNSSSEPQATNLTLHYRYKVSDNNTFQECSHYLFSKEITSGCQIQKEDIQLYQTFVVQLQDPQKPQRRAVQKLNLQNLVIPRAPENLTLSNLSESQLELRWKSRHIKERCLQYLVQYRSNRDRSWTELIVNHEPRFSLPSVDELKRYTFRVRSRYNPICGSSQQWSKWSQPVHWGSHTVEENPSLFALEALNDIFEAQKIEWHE

B1: mouse interleukin-2 (mIL-2) (ligand, UniProt P04351 21-169, looked up)
chain: APTSSSTSSSTAEAQQQQQQQQQQQQHLEQLLMDLQELLSRMENYRNLKLPRMLTFKFYLPKQATELKDLQCLEDELGPLRHVLDLTQSKSFQLEDAENFISNIRVTVVKLKGSDNTFECQFDDESATVVDFLRRWIAFCQSIISTSPQ
notes: range 1-149; Baculovirus expression for SPR; also called MmIL-2; mouse IL-2
Kd [1]: 8030 nM
Kd [2]: 126 nM

B2: G1_neo2_40_1F (designed binder)
chain: STKKTQLLAEHALLDALMMLNLLPEPNEKLNRIITTMQSWIFTGKIDGDGAQELAKEVEELEQEHEKRGIDVEDYASNLKVILLELA
notes: also called G1_ne02_40_1F
Kd [1]: 2.3 nM
Kd [2]: 7.9 nM

B3: G2_neo2_40_1F_dsn36 (designed binder)
chain: PKKKIQLLAEHALLDALMILNIVKTNSQNAEEKLEDYASNVEVILEEIARLMESGDQKDEAEKAKRMKEWMKRIKTTASEDEQEEMANRIITLLQSWIFS
notes: E. coli, N-terminal 6xHis tag and thrombin site
Kd [1]: 114 nM
Kd [2]: 568 nM
